Data on one molecule can be found in publication PMC8387964 (2021).

Broadly, the Kd is the equilibrium constant for the complex coming apart. A low value points to tighter binding.

Assay [1] deals with Rac1 (Homo sapiens, UniProt P63000).
Assay [2] has as its target Rac1 (Homo sapiens, UniProt P63000, Rac1 acetylated at K166).

B1: p67phox (protein)
chain: MSLVEAISLWNEGVLAADKKDWKGALDAFSAVQDPHSRICFNIGCMYTILKNMTEAEKAFTRSINRDKHLAVAYFQRGMLYYQTEKYDLAIKDLKEALIQLRGNQLIDYKILGLQFKLFACEVLYNIAFMYAKKEEWKKAEEQLALATSMKSEPRHSKIDKAMECVWKQKLYEPVVIPVGKLFRPNERQVAQLAKKDYLGKATVVASVVDQDSFSGFAPLQPQAAEPPPRPKTPEIFRALEGEAHRVLFGFVPETKEELQVMPGNIVFVLKKGNDNWATVMFNGQKGLVPCNYLEPVELRIHPQQQPQEESSPQSDIPAPPSSKAPGRPQLSPGQKQKEEPKEVKLSVPMPYTLKVHYKYTVVMKTQPGLPYSQVRDMVSKKLELRLEHTKLSYRPRDSNELVPLSEDSMKDAWGQVKNYCLTLWCENTVGDQGFPDEPKESEKADANNQTTEPQLKKGSQVEALFSYEATQPEDLEFQEGDIILVLSKVNEEWLEGECKGKVGIFPKVFVEDCATTDLESTRREV
B1: the figures for the Kd in assay [1] and in assay [2] were 2340 nM and 109 nM, respectively.
